“And” between values parts separate entries of the source, which are not always exact repeats. Equal entries are not always repeated.
B1: Ribonuclease, P00648 (parent)
chain: MMKMEGIALKKRLSWISVCLLVLVSAAGMLFSTAAKTETSSHKAHTEAQVINTFDGVADYLQTYHKLPDNYITKSEAQALGWVASKGNLADVAPGKSIGGDIFSNREGKLPGKSGRTWREADINYTSGFRNSDRILYSSDWLIYKTTDHYQTFTKIR

Variants of: B1
Conditions: Bacillus amyloliquefaciens; pH 6.3; 25 °C; Urea; Fluorescence; MES 1.00 M; NaCl 613 mM; reversible: yes; structure 1BNI; whole UniProt chain shown
With I51A the “ddG of mutation (higher = less stable)” value was 6.28 kJ/mol and 3.47 kJ/mol.
In the case of I51V, the “ddG of mutation (higher = less stable)” value is reported as 2.8 kJ/mol.
In the case of N52A, the “ddG of mutation (higher = less stable)” value is reported as 8.62 kJ/mol.
In the case of V57A, the “ddG of mutation (higher = less stable)” value is reported as 15.2 kJ/mol.
For V57T, the “ddG of mutation (higher = less stable)” value was 10.8 kJ/mol.
In the case of I72V, the “ddG of mutation (higher = less stable)” value is reported as 4.94 kJ/mol.
With E76G the “ddG of mutation (higher = less stable)” value was 7.95 kJ/mol.
For V83A, the “ddG of mutation (higher = less stable)” value was 5.61 kJ/mol.
With N88D the “ddG of mutation (higher = less stable)” value was 10.5 kJ/mol.
For V92A, the “ddG of mutation (higher = less stable)” value was 7.66 kJ/mol.
For V92T, the “ddG of mutation (higher = less stable)” value was 10.2 kJ/mol.
In the case of I98V, the “ddG of mutation (higher = less stable)” value is reported as 7.74 kJ/mol.
With D101A the “ddG of mutation (higher = less stable)” value was 13 kJ/mol.
With D101N the “ddG of mutation (higher = less stable)” value was 10.1 kJ/mol.
In the case of I102A, the “ddG of mutation (higher = less stable)” value is reported as 5.36 kJ/mol.
For I102T, the “ddG of mutation (higher = less stable)” value was 4.18 kJ/mol.
In the case of N105A, the “ddG of mutation (higher = less stable)” value is reported as 9.08 kJ/mol.
With K109R the “ddG of mutation (higher = less stable)” value was 1.8 kJ/mol.
With I123A the “ddG of mutation (higher = less stable)” value was 8.54 kJ/mol and 4.85 kJ/mol.
For I123V, the “ddG of mutation (higher = less stable)” value was 3.68 kJ/mol.
In the case of N124A, the “ddG of mutation (higher = less stable)” value is reported as 7.87 kJ/mol.
For N131A, the “ddG of mutation (higher = less stable)” value was 9.37 kJ/mol.
With I135A the “ddG of mutation (higher = less stable)” value was 11.5 kJ/mol.
For L136T, the “ddG of mutation (higher = less stable)” value was 12.1 kJ/mol and 10.7 kJ/mol.
In the case of L136V, the “ddG of mutation (higher = less stable)” value is reported as 0.126 kJ/mol.
With S138A the “ddG of mutation (higher = less stable)” value was 8.08 kJ/mol.
For S139A, the “ddG of mutation (higher = less stable)” value was 11.5 kJ/mol.
For I143A, the “ddG of mutation (higher = less stable)” value was 9.92 kJ/mol.
With T152V the “ddG of mutation (higher = less stable)” value was 9.41 kJ/mol.
In the case of I156A, the “ddG of mutation (higher = less stable)” value is reported as 9.29 kJ/mol and 5.86 kJ/mol.
In the case of I156V, the “ddG of mutation (higher = less stable)” value is reported as 3.43 kJ/mol.

— FireProtDB (doi:10.1016/0022-2836(92)90564-z)
